By koff is commonly meant a measure of how fast the partners let go of each other. Lower therefore signals slow dissociation. Usually Kd stands for the free concentration of one partner at which half of the binding sites on the other are occupied at equilibrium, for simple one-to-one binding. Low values mean tighter binding, high ones weaker binding.

Data on three molecules can be found in article PMC8971729 (2022).

Sequences and labels used below:
B3: human CXADR Fc chimera protein (CAR) (Fc fusion)
chain: LSITTPEEMIEKAKGETAYLPCKFTLSPEDQGPLDIEWLISPADNQKVDQVIILYSGDKIYDDYYPDLKGRVHFTSNDLKSGDASINVTNLQLSDIGTYQCKVKKAPGVANKKIHLVVLVKPSGARCYVDGSEEIGSDFKIKCEPKEGSLPLQYEWQKLSDSQKMPTSWLAEMTSSVISVKNASSEYSGTYSCTVRNRVGSDQCLLRLNVVPPSNKAG

What all share (assay): SPR
In test [1] the target is B3.
Test [2] deals with T1, human CD46 protein (His tag) (human, UniProt P15529).
T1 chain: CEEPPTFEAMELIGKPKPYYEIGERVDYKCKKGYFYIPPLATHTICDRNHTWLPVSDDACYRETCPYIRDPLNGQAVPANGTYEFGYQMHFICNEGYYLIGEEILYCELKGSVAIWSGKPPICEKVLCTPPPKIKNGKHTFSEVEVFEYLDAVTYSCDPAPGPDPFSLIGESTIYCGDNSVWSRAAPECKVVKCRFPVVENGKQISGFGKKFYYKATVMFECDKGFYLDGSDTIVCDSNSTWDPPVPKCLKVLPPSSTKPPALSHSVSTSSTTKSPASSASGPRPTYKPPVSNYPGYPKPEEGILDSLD

The target in test [3] is T2, Human desmoglein-2 Fc chimera protein (DSG2) (human, UniProt Q14126).
T2 chain: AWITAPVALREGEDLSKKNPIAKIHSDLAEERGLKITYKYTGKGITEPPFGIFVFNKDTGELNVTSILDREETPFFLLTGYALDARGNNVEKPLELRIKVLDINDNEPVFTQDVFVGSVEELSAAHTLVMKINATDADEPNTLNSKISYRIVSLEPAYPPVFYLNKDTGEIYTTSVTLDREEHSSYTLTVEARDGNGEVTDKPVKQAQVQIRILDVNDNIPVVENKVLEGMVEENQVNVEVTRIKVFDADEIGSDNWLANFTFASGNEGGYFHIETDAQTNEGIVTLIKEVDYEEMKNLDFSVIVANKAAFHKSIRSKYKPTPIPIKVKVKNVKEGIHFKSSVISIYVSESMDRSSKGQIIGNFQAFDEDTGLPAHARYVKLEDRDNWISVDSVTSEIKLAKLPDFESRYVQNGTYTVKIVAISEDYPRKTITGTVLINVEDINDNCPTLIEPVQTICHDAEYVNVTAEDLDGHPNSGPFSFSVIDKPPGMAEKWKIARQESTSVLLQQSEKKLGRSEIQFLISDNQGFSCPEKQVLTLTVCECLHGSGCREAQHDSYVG

For test [4], the target named is T1, human CD46 protein (His tag).
The target of test [5] is HAdV-D10 fiber knob protein (human adenovirus type 10 (HAdV-D10)).

B1: HAdV-C5 fiber knob protein (domain or fragment)
chain: KNNDKLTLWTTPAPSPNCRLNAEKDAKLTLVLTKCGSQILATVSVLAVKGSLAPISGTVQSAHLIIRFDENGVLLNNSFLDPEYWNFRNGDLTEGTAYTNAVGFMPNLSAYPKSHGKTAKSNIVSQVYLNGDKTKPVTLTITLNGTQETGDTTPSAYSMSFSWDWSGHNYINEIFATSSYTFSYIAQE
In the case of B1, the koff in test [1] is 0.0019 s⁻¹.

B2: HAdV-B3 fiber knob (domain or fragment)
chain: NSIALKNNTLWTGPKPEANCIIEYGKQNPDSKLTLILVKNGGIVNGYVTLMGASDYVNTLFKNKNVSINVELYFDATGHILPDSSSLKTDLELKYKQTADFSARGFMPSTTAYPFVLPNAGTHNENYIFGQCYYKASDGALFPLEVTVMLNKRLPDSRTSYVMTFLWSLNAGLAPETTQATLITSPFTFSYIREDD
Take B2: the koff in test [2] is 0.025 s⁻¹. The figures for the Kd in test [3] and in test [4] were 66.9 µM and 0.16 µM, respectively. As to B3, the koff in test [5] came out at 0.0019 s⁻¹.
